2 molecules from patent publication US20050048622A1 (Genentech, published 2005) can be followed below.

One assay concerns the target ErbB4.Fc (UniProt Q15303). Kind of assay: displacement of ^125I-NRG3^EGF.Fc from immobilized ErbB4.Fc, 96-well plate.
The target of another assay is T1, human ErbB4 receptor (human, UniProt Q15303 26-1308).
T1 construct: whole, on cells; also called HER4; K562^erbB4 cells
Kind of assay: FACS on K562^erbB4 cells.

The target of a further assay is T2, human ErbB3 receptor (human, UniProt P21860 20-1342).
T2 construct: whole, on cells; also called HER3; K562^erbB3 cells
Kind of assay: FACS on K562^erbB3 cells.

The target of another assay is T3, human ErbB2 receptor (human, UniProt P04626 23-1255).
T3 construct: whole, on cells; also called HER2; K562^erbB2 cells
Kind of assay: FACS on K562^erbB2 cells.

T1 sequence (Q15303 26-1308): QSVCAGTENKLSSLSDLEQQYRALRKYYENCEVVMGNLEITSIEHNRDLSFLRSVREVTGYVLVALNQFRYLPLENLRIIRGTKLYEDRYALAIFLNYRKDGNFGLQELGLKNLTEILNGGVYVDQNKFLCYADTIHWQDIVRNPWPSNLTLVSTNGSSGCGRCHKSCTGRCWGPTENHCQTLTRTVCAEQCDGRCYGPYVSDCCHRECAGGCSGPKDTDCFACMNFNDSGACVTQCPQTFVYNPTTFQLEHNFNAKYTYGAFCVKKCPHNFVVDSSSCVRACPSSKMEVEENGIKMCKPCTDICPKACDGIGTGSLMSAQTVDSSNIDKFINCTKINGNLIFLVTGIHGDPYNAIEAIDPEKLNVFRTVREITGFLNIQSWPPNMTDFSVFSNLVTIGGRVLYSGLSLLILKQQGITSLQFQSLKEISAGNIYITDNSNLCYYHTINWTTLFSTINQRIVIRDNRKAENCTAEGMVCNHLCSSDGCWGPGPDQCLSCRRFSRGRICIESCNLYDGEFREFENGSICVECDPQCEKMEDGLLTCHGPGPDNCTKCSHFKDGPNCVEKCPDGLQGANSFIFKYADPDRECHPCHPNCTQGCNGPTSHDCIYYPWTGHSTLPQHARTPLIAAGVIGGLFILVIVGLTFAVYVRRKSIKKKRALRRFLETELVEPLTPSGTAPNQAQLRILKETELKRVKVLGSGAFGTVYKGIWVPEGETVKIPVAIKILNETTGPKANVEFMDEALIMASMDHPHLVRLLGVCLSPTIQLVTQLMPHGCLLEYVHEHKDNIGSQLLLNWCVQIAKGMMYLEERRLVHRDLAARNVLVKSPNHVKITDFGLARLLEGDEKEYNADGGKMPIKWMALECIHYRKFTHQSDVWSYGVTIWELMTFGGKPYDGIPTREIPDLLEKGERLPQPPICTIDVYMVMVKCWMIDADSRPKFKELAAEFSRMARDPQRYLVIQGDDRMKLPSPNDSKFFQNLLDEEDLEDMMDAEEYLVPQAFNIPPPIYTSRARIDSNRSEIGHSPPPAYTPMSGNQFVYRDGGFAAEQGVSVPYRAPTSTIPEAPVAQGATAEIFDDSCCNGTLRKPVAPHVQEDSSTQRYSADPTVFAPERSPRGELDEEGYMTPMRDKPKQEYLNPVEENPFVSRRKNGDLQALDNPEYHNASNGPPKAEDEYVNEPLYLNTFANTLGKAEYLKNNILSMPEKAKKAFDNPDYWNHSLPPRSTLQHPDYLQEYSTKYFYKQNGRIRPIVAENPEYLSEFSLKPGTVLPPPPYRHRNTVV
T2 sequence (P21860 20-1342): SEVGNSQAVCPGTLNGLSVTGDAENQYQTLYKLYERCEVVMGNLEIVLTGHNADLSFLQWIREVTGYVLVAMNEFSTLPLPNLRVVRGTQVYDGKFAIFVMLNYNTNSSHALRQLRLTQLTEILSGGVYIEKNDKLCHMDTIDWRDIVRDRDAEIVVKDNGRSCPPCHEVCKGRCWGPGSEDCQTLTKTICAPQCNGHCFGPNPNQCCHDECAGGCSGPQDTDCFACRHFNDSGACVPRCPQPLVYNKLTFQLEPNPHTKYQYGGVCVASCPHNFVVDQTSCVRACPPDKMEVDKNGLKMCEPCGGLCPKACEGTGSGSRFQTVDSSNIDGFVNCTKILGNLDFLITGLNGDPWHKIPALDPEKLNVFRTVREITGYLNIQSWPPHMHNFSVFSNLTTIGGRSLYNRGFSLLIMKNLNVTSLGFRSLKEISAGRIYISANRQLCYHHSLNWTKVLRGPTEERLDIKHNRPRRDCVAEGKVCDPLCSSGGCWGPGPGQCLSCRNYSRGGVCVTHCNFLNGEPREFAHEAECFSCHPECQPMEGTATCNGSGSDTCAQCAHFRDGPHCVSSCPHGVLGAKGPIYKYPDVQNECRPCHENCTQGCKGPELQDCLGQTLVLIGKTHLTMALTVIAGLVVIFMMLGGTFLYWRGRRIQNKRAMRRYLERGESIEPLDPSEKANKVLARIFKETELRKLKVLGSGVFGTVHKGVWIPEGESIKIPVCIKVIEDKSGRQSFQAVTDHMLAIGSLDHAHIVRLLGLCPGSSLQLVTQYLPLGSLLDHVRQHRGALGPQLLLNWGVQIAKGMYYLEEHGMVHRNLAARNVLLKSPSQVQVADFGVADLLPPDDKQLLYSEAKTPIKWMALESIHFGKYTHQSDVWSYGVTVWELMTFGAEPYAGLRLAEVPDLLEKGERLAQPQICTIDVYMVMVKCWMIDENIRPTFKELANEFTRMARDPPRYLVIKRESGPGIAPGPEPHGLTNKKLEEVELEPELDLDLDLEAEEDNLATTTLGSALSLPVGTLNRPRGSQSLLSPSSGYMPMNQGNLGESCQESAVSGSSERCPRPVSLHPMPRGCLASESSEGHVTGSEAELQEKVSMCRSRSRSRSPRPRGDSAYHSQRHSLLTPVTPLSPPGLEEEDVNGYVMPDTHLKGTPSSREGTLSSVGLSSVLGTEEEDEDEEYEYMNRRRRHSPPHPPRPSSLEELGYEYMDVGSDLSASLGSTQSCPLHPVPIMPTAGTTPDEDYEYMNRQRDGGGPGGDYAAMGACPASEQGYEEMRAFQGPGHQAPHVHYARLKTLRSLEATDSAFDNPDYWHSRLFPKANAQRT
ErbB4.Fc, sequence (Q15303 26-651 limits assumed): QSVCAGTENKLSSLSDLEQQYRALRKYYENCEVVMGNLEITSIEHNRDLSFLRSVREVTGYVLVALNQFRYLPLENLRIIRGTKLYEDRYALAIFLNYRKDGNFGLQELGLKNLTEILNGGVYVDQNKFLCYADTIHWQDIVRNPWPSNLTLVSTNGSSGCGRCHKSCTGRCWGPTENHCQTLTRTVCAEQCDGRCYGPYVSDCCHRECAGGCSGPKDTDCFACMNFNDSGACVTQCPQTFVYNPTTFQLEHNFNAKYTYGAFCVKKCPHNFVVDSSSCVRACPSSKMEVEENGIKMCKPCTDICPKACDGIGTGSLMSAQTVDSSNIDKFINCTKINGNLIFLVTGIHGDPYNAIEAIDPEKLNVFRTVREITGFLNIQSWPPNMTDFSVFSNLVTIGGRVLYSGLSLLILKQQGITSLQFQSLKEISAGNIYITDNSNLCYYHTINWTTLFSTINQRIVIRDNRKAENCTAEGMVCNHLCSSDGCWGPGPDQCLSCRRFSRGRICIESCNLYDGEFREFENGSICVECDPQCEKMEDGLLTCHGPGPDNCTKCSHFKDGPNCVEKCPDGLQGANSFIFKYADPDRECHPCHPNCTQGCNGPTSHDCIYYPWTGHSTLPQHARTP

As usually defined, the Ki is the dissociation constant of the complex between target and ligand, obtained from inhibition or displacement. As for “NRG1^EGF (rHRGβ1 177-244) (from UniProt Q02297 177-244) (ligand)”, the Ki with ErbB4.Fc was 1 nM. That is a single-digit nanomolar value.

B1: RSE.Fc (Fc fusion, UniProt Q06418 41-428, looked up)
chain: AGLKLMGAPVKLTVSQGQPVKLNCSVEGMEEPDIQWVKDGAVVQNLDQLYIPVSEQHWIGFLSLKSVERSDAGRYWCQVEDGGETEISQPVWLTVEGVPFFTVEPKDLAVPPNAPFQLSCEAVGPPEPVTIVWWRGTTKIGGPAPSPSVLNVTGVTQSTMFSCEAHNLKGLASSRTATVHLQALPAAPFNITVTKLSSSNASVAWMPGADGRALLQSCTVQVTQAPGGWEVLAVVVPVPPFTCLLRDLVPATNYSLRVRCANALGPSPYADWVPFQTKGLAPASAPQNLHAIRTDSGLILEWEEVIPEAPLEGPLGPYKLSWVQDNGTQDELTVEGTRANLTGWDPQKDLIVRVCVSNAVGCGPWSQPLVVSSHDRAGQQGPPHSRTS
notes: Control; also called control fusion protein; control receptor RSE.Fc; not shown: Fc part
Consider B1, for which the binding result with human ErbB4 receptor, in the assay with human ErbB3 receptor and in the assay with human ErbB2 receptor was “no binding” throughout.
